Square brackets hold non-standard residues; d marks the D form. Ends that are not written are not given here. pS = N[C@@H](COP(=O)(O)O)C(=O)O
Target: wild-type (WT) GSK-3β (human, UniProt P49841 1-420, limits assumed)
Assay: cell-based or functional assay

wild-type (WT) GSK-3β, sequence (P49841 other isoform, or with tags, fused parts or gaps limits assumed): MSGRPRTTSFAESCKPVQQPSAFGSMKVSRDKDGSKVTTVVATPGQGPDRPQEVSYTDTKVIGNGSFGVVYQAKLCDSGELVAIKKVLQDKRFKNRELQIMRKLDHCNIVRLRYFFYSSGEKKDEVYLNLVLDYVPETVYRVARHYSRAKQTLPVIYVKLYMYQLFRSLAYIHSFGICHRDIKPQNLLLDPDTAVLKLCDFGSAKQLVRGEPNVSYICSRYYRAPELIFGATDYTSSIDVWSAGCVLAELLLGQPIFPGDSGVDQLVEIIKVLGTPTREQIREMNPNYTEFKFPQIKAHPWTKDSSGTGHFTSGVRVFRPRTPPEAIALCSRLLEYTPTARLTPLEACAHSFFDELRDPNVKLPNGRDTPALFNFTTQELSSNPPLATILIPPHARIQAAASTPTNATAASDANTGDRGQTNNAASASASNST

- IC50, in vitro kinase assay: ~150 µM
- in vitro kinase assays with GSK-3β in the presence of L803 or L803F (200 µM each); inhibition relative to L803: ~50 % relatively to L803
Binder: KEAPPAPPQ[pS]PF [L803F, Lys-Glu-Ala-Pro-Pro-Ala-Pro-Pro-Gln-phosphorylated Ser-Pro-Phe]
